Experimental data taken from FireProtDB (doi:10.1016/j.jmb.2009.04.068).
Where “and” joins values, the source holds several entries; their conditions need not be identical. Equal values may be shown once.

B1: Neurotensin receptor type 1, P20789 (parent)
chain: MHLNSSVPQGTPGEPDAQPFSGPQSEMEATFLALSLSNGSGNTSESDTAGPNSDLDVNTDIYSKVLVTAIYLALFVVGTVGNSVTAFTLARKKSLQSLQSTVHYHLGSLALSDLLILLLAMPVELYNFIWVHHPWAFGDAGCRGYYFLRDACTYATALNVASLSVERYLAICHPFKAKTLMSRSRTKKFISAIWLASALLAIPMLFTMGLQNRSGDGTHPGGLVCTPIVDTATVKVVIQVNTFMSFLFPMLVISILNTVIANKLTVMVHQAAEQGRVCTVGTHNGLEHSTFNMTIEPGRVQALRHGVLVLRAVVIAFVVCWLPYHVRRLMFCYISDEQWTTFLFDFYHYFYMLTNALFYVSSAINPILYNLVSANFRQVFLSTLACLCPGWRHRRKKRPTFSRKPNSMSSNHAFSTSATRETLY

Variants of: B1
Settings: Rattus norvegicus, pH 7.4, Activity, Tris-HCl 50 mM, structure 4BUO, whole UniProt chain shown

Variant | Tm (Heat treatment) | change of melting temperature, mutant - wild type (higher = more stable) (Thermal) | Tm (Thermal)
MHLNSSVPQGTPGEPDAQPFSGPQSEMEATFLALSLSNGSGNTSESDTAGPNSDLDVNTDIYSKVLVTAIYLALFVVGTVGNSVTLFTLARKKSLQSLQSTVHYHLGSLALSDLLILLLAMPVELYNFIWVHHPWAFGDAGCRGYYFLRDACTYATALNVASLSVERYLAICHPFKAKTLMSRSRTKKFISAIWLASALLAIPMLFTMGLQNRSGDGTHPGGLVCTPIVDTATVKVVIQVNTFMSFLFPMLVISILNTVAANKLTVMVHQAAEQGRVCTVGTHNGLEHSTFNMTIEPGRVQALRHGVLVLRAVVIAFVVCWLPYHVRRLMFCYISDEQWTTALFDFYHYFYMLTNALFYVSSAINPILYNLVSANFRQVFLSTLACLCPGWRHRRKKRPTFSRKPNSMSSNHAFSTSATRETLY [A86L I260A F342A] | 47 °C | – | –
MHLNSSVPQGTPGEPDAQPFSGPQSEMEATFLALSLSNGSGNTSESDTAGPNSDLDVNTDIYSKVLVTAIYLALFVVGTVGNSVTAFTLARKKSLQSLQSTVAYHLGSLALSDLLILLLAMPVELYNFIWVHHPWAFGDAGCRGYYFLRDACTYATALNVASLSVERYLAICHPFKAKTLMSRSRTKKFISAIWLASALLAIPMLFTMGLQNRSGDGTHPGGLVCTPIVDTATVKVVIQVNTFMSFLFPMLVISILNTVIANKLTVMVHQAAEQGRVCTVGTHNGLEHSTFNMTIEPGRVQALRHGVLVLRAVVIAFVVCWLPYHVRRLMFCYISDEQWTTFLFDFYHYFYMLTNALFYVSSAINPILYNLVSANFRQVFLSTLACLCPGWRHRRKKRPTFSRKPNSMSSNHAFSTSATRETLY [H103A] | 34 °C and 36 °C | – | –
MHLNSSVPQGTPGEPDAQPFSGPQSEMEATFLALSLSNGSGNTSESDTAGPNSDLDVNTDIYSKVLVTAIYLALFVVGTVGNSVTLFTLARKKSLQSLQSTVHYHLGSLALSDLLILLLAMPVELYNFIWVHHPWAFGDAGCRGYYFLRDACTYATALNVASLSVERYLAICHPFKAKTLMSRSRTKKFISAIWLASALLAIPMLFTMGLQNRSGDGTHPGGLVCTPIVDTATVKVVIQVNTFMSFLFPMLVISILNTVIANKLTVMVHQAAEQGRVCTVGTHNGLEHSTFNMTIEPGRVQALRHGVLVLRAVVIAFVVCWLPYHVRRLMFCYISDEQWTTFLFDFYHYFYMLTNALAYVSSAINPILYNLVSANFRQVFLSTLACLCPGWRHRRKKRPTFSRKPNSMSSNHAFSTSATRETLY [A86L F358A] | 48 °C | 11 °C and 10 °C | –
MHLNSSVPQGTPGEPDAQPFSGPQSEMEATFLALSLSNGSGNTSESDTAGPNSDLDVNTDIYSKVLVTAIYLALFVVGTVGNSVTLFTLARKKSLQSLQSTVHYHLGSLALSDLLILLLAMPVELYNFIWVHHPWAFGDAGCRGYYFLRDACTYATALNVASLSVERYLAICHPFKAKTLMSRSRTKKFISAIWLASALLAIPMLFTMGLQNRSGDGTHPGGLVCTPIVDTATVKVVIQVNTFMSFLFPMLVISILNTVAANKLTVMVHQAAEQGRVCTVGTHNGLEHSTFNMTIEPGRVQALRHGVLVLRAVVIAFVVCWLPYHVRRLMFCYISDEQWTTALFDFYHYFYMLTNALAYVSSAINPILYNLVSANFRQVFLSTLACLCPGWRHRRKKRPTFSRKPNSMSSNHAFSTSATRETLY [A86L I260A F342A F358A] | 50 °C | – | –
MHLNSSVPQGTPGEPDAQPFSGPQSEMEATFLALSLSNGSGNTSESDTAGPNSDLDVNTDIYSKVLVTAIYLALFVVGTVGNSVTLFTLARKKSLQSLQSTVHYHLGSLALSDLLILLLAMPVELYNFIWVHHPWAFGDAGCRGYYFLRDACTYATALNVASLSVERYLAICHPFKAKTLMSRSRTKKFISAIWLASALLAIPMLFTMGLQNRSGDGTHPGGLVCTPIVDTATVKVVIQVNTFMSFLFPMLVISILNTVIANKLTVMVHQAAEQGRVCTVGTHNGLEHSTFNMTIEPGRVQALRHGVLVLRAVVIAFVVCWLPYHVRRLMFCYISDEQWTTFLFDFYHYFYMLTNALFYVSSAINPILYNLVSANFRQVFLSTLACLCPGWRHRRKKRPTFSRKPNSMSSNHAFSTSATRETLY [A86L] | 37 °C and 39 °C | 8 °C | 33 °C
